Assays:
crystal structure = biological target: the molecule itself; test: crystal structure
native gel or EMSA = biological target: the molecule itself; test: native gel or EMSA

B1: mouse GATA3 C-terminal zinc finger (amino acid residues 308-370) (domain or fragment, UniProt P23772 308-370, looked up)
chain: SAARRAGTSCANCQTTTTTLWRRNANGDPVCNACGLYYKLHNINRPLTMKKEGIQTRNRKMSS
B1: binds (crystal structure).

B2: mouse GATA3 double zinc finger fragment (amino acids 260-370) (domain or fragment)
chain: not shown
B2: binds (native gel or EMSA).

From publication PMC4559223 (Journal of molecular biology, 2008)
